Assay [1] deals with rat parathyroid hormone receptor (PTHR) (UniProt P25961). Nature of the assay: competition binding; RG conformation.
Assay [2] has the same target. Nature of the assay: competition binding; R0 conformation.

The term IC50 denotes the concentration that gives 50% inhibition. Higher therefore signals a need for much substance.

Chain of rat parathyroid hormone receptor (PTHR) (P25961 27-591): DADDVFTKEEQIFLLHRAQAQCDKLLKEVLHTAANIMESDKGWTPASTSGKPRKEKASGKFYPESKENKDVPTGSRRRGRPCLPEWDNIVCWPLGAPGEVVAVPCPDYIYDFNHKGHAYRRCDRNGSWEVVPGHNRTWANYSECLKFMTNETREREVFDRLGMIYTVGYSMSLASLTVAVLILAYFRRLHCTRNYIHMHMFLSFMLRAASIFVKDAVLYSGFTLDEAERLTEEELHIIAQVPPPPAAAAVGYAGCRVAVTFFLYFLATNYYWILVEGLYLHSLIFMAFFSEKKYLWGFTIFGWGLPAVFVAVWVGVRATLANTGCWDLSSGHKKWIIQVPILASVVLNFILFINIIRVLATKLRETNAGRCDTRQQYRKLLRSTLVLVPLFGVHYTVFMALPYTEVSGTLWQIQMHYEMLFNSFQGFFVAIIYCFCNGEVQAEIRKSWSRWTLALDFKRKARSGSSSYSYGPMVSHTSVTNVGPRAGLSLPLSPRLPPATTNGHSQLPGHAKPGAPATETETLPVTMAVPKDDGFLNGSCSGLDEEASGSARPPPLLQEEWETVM

For the substance Mc-hPTH(1-34)OH, the IC50 was 0.56 nM in assay [1] and 1.9 nM in assay [2].

With [I^5]-PTHrP(1-36), the IC50 turned out to be 1.02 nM in assay [1] and 2.3 nM in assay [2].

For Mc-PTH(1-18)/PTHrP(19-36)OH, the results for the IC50 in assay [1] and in assay [2] were 0.82 nM and 1.4 nM, respectively.

hPTHrP(1-36): the IC50 in assay [1] turned out to be 0.44 nM; in assay [2] it was 20 nM.

With Mc-PTH(1-14)/PTHrP(15-36)OH, the IC50 in assay [1] came to 0.81 nM; in assay [2] it was 1.3 nM.

Consider Mc-PTH(1-11)/PTHrP(12-36)OH, for which the IC50 in assay [1] is 0.73 nM; in assay [2] it was 1.8 nM.

For the substance H5,Mc-hPTH(1-34)OH, the IC50 in assay [1] was determined as 0.32 nM; in assay [2] it was 26 nM.

H5,Mc-hPTH(1-14)/rP(15-36)OH: the IC50 was determined as 1.7 nM in assay [1] and 9 nM in assay [2].

On to H5,E19,Mc-hPTH(1-34)OH, for which the figures for the IC50 in assay [1] and in assay [2] were 1.41 nM and 1390 nM, respectively.

For [A^23,E^19],Mc-hPTH(1-34)OH, the IC50 in assay [1] worked out at 0.49 nM; in assay [2], 20.3 nM.

In the case of [E^19],Mc-hPTH(1-34)OH, the IC50 was 0.57 nM in assay [1] and 2.33 nM in assay [2].

In the case of H5,E19,Mc-hPTH(1-14)/rP(15-36)OH, the IC50 came out at 4.8 nM in assay [1] and 197 nM in assay [2].

These data come from patent publication US20110172153A1.
